Experimental data: US20230295305A1 (GRITSTONE BIO, published 2023)
Substitutions are numbered along the chain they refer to. Blank lines part the entries; values can stand above or below the binder they belong to.

Legend:
[1] = target: T1, CD3 on CD3+ Jurkat cells; test: flow cytometry, Format 41 bispecific on CD3+ Jurkat cells
T1 construct: whole, on cells

[2] = target: T2, HLA-A*02:01 / … complex (HLA-PEPTIDE target G8) on cells (human); test: cell-based or functional assay
[3] = target: T2, HLA-A*02:01 / … complex (HLA-PEPTIDE …); test: flow cytometry, Format 41 bispecific on A375 cells expressing ~300,000 copies of the pHLA 10mer
[4] = target: T3, biotinylated pHLA: HLA subtype A*02:01 complexed with … (HLA-PEPTIDE target G8) (human); test: MSD specificity ratio; threshold for selection of the 12 hit clones of Table 14
T3 construct: Soluble biotinylated pHLA coupled to U-PLEX linker 1 in the MSD assay; also called pHLA target
Experimental: G8 scFv screening was conducted using the Meso Scale Discovery U-PLEX Development Pack, 9-assay (cat. No. K15234N). The pack contains a 10-spot U-PLEX plate with 9 activated spots and 9 unique linkers as well as stop solution and read buffer. Biotinylated pHLA and biotinylated Protein L were each diluted to 33 nM using PBS+0.5% BSA. For each plate, 200 μL of the diluted pHLA or protein L was mixed with 300 μL of the corresponding Linker (see Table 9) and incubated at room temperature for 30 minutes.
Following the 30-minute incubation, 200 μL stop solution was added to each linker-pHLA solution. They were again incubated for 30 minutes at room temperature. These volumes were scaled based on the number of plates. The linker-pHLA solutions were then a 10× solution. They were then pooled together and further diluted with stop solution to the final 1× concentration. For example, for one plate with one linker, 600 μL pHLA would be diluted with 5.4 mL stop solution for the 1× concentration with a total volume of 6 mL. For one plate using 8 linkers, 600 μL of each linker was pooled to give 4.8 mL volume and 1.2 mL additional stop solution added for the final 6 mL volume. All volumes were scaled for additional plates. The pooled linker-pHLA solution was then coated onto the 10-spot plate as 50 μL/well, the plate sealed and stored at 4° C. overnight.
Samples, periplasmic extracts (PPE) were diluted 40-fold with PBS+1% BSA. The plate was washed 3 times with PBS+0.05% Tween and samples added as 50 μL/well. Plates were incubated at room temperature shaking for 2 hours. The plates were washed as before and 50 μL of 1 μg/mL SulfoTag anti-Myc tag (Abcam, ab206486) was added to each well. The anti-Myc tag antibody was sulfo-tag labeled using the MSD Gold Sulfo-tag NHS-Ester Conjugation kit (Meso Scale Discovery, R31AA-2) at a challenge ratio of 10. The plates were incubated for 1 hour shaking at room temperature. The plate wash was repeated and 150 μL 2× Read Buffer T (Meso Scale Discovery, R92TC-2) was added to all wells and the plate read immediately on the Quickplex SQ 120.

T1 sequence (P07766 23-207): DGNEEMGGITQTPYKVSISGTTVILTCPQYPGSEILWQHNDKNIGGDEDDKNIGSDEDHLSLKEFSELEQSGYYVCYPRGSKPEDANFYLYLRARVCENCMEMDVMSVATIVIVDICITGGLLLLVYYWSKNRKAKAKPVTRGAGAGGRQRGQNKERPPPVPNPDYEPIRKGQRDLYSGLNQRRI

B1: 5G06NT Format 41 diabody bispecific antibody (anti-G8 x anti-CD3) (bispecific antibody, V domains shown)
VH: EVQLLESGGGLVQPGGSLRLSCAASGFTFSDYYMSWVRQAPGKGLEWVSGINWPGGSTGYADSVKGRFTISRDNSKNTLYLQMNSLRAEDTAVYYCARVEQGYDIYYFYYMDVWGKGTTVTVSS
VL: DIQMTQSPSSLSASVGDRVTITCRASQSISSYLNWYQQKPGKAPKLLIYKASSLESGVPSRFSGSGSGTDFTLTISSLQPEDFATYYCQQSYSAPYTFGPGTKVDIK
EC50 [1]: 41 nM | EC 50 (nM), cytotoxicity of A375 FoxE1 cells [2]: 0.08 nM | EC50 [3]: 0.11 nM

B4: 09D01 scFv (scFv, V domains shown)
VH: B1 VH with P54H, G55H, F108Y
VL: B1 VL
notes: As m4: periplasmic-extract scFv
target/OTLA specificity [4]: > 50 ratio

B7: 09D06 scFv (scFv, V domains shown)
VH: B1 VH with G56S, E100R, I105Y, F108Y
VL: B1 VL
notes: as for B4
target/OTLA specificity [4]: > 50 ratio

B8: 05G09 scFv (scFv, V domains shown)
VH: B1 VH with S49G, G59D, F108Y
VL: B1 VL
notes: As m4; also called 0509
target/OTLA specificity [4]: > 50 ratio

B9: 05C04 scFv (scFv, V domains shown)
VH: B1 VH with F27Y, S57Y, F108Y
VL: B1 VL
notes: as for B4
target/OTLA specificity [4]: > 50 ratio

B10: 05A08 scFv (scFv, V domains shown)
VH: B1 VH with F27Y, S49G, G50N, P54N, G59L, I105N, F108Y
VL: B1 VL
notes: as for B4
target/OTLA specificity [4]: > 50 ratio

The next lines start with the values.

EC50 [1]: 161 nM | EC50 [3]: 72.8 nM
B2: 1B03 (G8-1B03, Parent A) Format 41 diabody bispecific antibody (anti-G8 x anti-CD3) (bispecific antibody, V domains shown)
VH: B1 VH with P54N, F108Y
VL: B1 VL

target/OTLA specificity [4]: > 50 ratio
B3: 09G01 scFv (scFv, V domains shown)
VH: B1 VH with G50V, G56S, F108Y
VL: B1 VL
notes: as for B4

target/OTLA specificity [4]: > 50 ratio
B5: 05A03 scFv (scFv, V domains shown)
VH: B1 VH with F27Y, F108Y
VL: B1 VL
notes: as for B4

target/OTLA specificity [4]: > 50 ratio
B6: 05G06 scFv (scFv, V domains shown)
VH: B1 VH with T69N
VL: B1 VL
notes: As m4: periplasmic-extract scFv; also called 04A11
